Publication PMC3685215

Target: recombinant type 1 inositol 1,4,5-trisphosphate receptor, N-terminally tagged with ECFP (rat) (UniProt P29994)
Assay: SEC; Calibrated Superose 6 10/300 GL gel filtration, the final purification step; 50 mM Tris/HCl, 150 mM NaCl, 1 mM EDTA, 1 mM dithiothreitol, 5% glycerol, 0.02% DDM, pH 8.3; 4 °C; oligomeric size of the purified receptor

In the case of “recombinant type 1 inositol 1,4,5-trisphosphate receptor, N-terminally tagged with ECFP (from UniProt P29994 1-2750)”, the stoichiometry N is reported as 4.
